B1: caspase-1^CARD (1-95, G20K), as it stands in the fusion m16 (domain or fragment, UniProt P29466 1-95, looked up)
chain: MADKVLKEKRKLFIRSMGEKTINGLLDELLQTRVLNKEEMEKVKRENATVMDKTRALIDSVIPKGAQACQICITYICEEDSYLAGTLGLSADQTS
notes: caspase-1, CARD, residues 1-95, type IIb mutant G20K; Joined on one chain with m17 through a 5x GSS linker; source: E. coli BL21 (DE3), purified as part of the fusion protein m16

Key:
[1] = biological target: CARD8^CARD (P446-L537, A452C), MBP tag cleaved (human) (UniProt Q9Y2G2); test: negative stain EM of filament formation; purified MBP-fused protein cleaved with 3C protease for 3 h at 37 °C at different concentrations (0.1 to 30 µM), then negatively stained with 1% uranyl formate and imaged
[2] = biological target: the molecule itself; test: SEC-MALS; Superdex 200 in 25 mM Tris-HCl pH 8.0, 150 mM NaCl, 2 mM DTT, three-angle light scattering and refractive index detectors, 0.5 mL/min
[3] = biological target: the molecule itself; test: SEC; preparative SEC of amylose-purified His-MBP fusions (Superdex 200 for MBP-CARD, Superose 6 for MBP-UPA and MBP-NLRP1-CT); 25 mM Tris-HCl pH 7.5, 150 mM NaCl, 1 mM TCEP
[4] = biological target: the molecule itself; test: cryo-EM structure; ASC^CARD-caspase-1^CARD octamer; 25 mM Tris-HCl pH 8.0, 150 mM NaCl, 2 mM DTT; 3.9 Å map
[5] = biological target: B1; test: as above; settings: both partners purified

| Molecule | binding result [3] | binding result [4] | other results |
| --- | --- | --- | --- |
| CARD8^CARD (P446-L537, A452C), MBP tag cleaved (from UniProt Q9Y2G2-5 446-537) (domain or fragment) |  |  | minimum concentration required to form filaments [1]: 15 µM |
| ASC^CARD (106-195, W169G)-5xGSS-caspase-1^CARD (1-95, G20K) fusion protein (other, ASC (apoptosis-associated speck-like protein containing a CARD), CARD, residues 106-195, type IIa mutant W169G; 5x GSS linker, written out from the printed '5XGSS'; caspase-1, CARD, residues 1-95, type IIb mutant G20K; Four fusion chains form an octamer of CARDs; also called ASC^CARD-caspase-1^CARD octamer; ASC^CARD-caspase-1^CARD fusion protein; source: E. coli BL21 (DE3), purified (Ni-NTA, TEV …)) SAAKPGLHFIDQHRAALIARVTNVEWLLDALYGKVLTDEQYQAVRAEPTNPSKMRKLFSFTPAGNWTCKDLLLQALRESQSYLVEDLERSGSSGSSGSSGSSGSSMADKVLKEKRKLFIRSMGEKTINGLLDELLQTRVLNKEEMEKVKRENATVMDKTRALIDSVIPKGAQACQICITYICEEDSYLAGTLGLSADQTS |  |  | stoichiometry N [2]: 4 |
| NLRP1 His-MBP-3C-UPA (S1213-P1364), uncleaved (domain or fragment, human, UniProt Q9C000-1 1213-1364, looked up, NLRP1, human, UPA S1213-P1364, isoform 1 (UniProt Q9C000-1); also called oligomeric MBP-UPA protein; source: E. coli BL21 (DE3), purified (amylose resin, Superose 6); not shown: His, N-terminal, kept; MBP, N-terminal, kept) SPLGVLLKMIHNALRFIPVTSVVLLYHRVHPEEVTFHLYLIPSDCSIRKAIDDLEMKFQFVRIHKPPPLTPLYMGCRYTVSGSGSGMLEILPKELELCYRSPGEDQLFSEFYVGHLGSGIRLQVKDKKDETLVWEALVKPGDLMPATTLIPP | binds |  |  |
| B1 |  | binds |  |
| CARD8 His-MBP-3C-UPA (S297-P446), uncleaved (domain or fragment, human, UniProt Q9Y2G2-5 297-446, looked up, CARD8, human, UPA S297-P446; numbers count on: T60 isoform, UniProt Q9Y2G2-5; Made by a stop codon in the CARD8 His-MBP-3C-UPA-CARD plasmid; also called oligomeric MBP-UPA protein; source: E. coli BL21 (DE3), purified (amylose resin, Superose 6); not shown: His, N-terminal, kept; MBP, N-terminal, kept) SLMGILLRIASGTRLSIPITSNTLIYYHPHPEDIKFHLYLVPSDALLTKAIDDEEDRFHGVRLQTSPPMEPLNFGSSYIVSNSANLKVMPKELKLSYRSPGEIQHFSKFYAGQMKEPIQLEITEKRHGTLVWDTEVKPVDLQLVAASAPP | binds |  |  |
| ASC^CARD (106-195, W169G), as it stands in the fusion m16 (domain or fragment, UniProt Q9ULZ3 106-195, looked up, ASC (apoptosis-associated speck-like protein containing a CARD), CARD, residues 106-195, type IIa mutant W169G; Joined on one chain with m18 through a 5x GSS linker; source: E. coli BL21 (DE3), purified as part of the fusion protein m16) SAAKPGLHFIDQHRAALIARVTNVEWLLDALYGKVLTDEQYQAVRAEPTNPSKMRKLFSFTPAGNWTCKDLLLQALRESQSYLVEDLERS |  | binds | binding result [5]: binds |

Source: article PMC7794386, “Mechanism of filament formation in UPA-promoted CARD8 and NLRP1 inflammasomes” (Nature Communications, 2021)
